According to patent US20090298765A1 (Takeda / Millennium, published 2009):
Where two headings read alike, the source gives them in different places. Non-standard residues stand in square brackets, D forms with d. No end group written: not given here. *: point of attachment. Propanoyl(3-indol-3-yl) = O=C(CCc1c[nH]c2ccccc12)*; Propanoyl(3-(3-pyridyl)) = O=C(CCc1cccnc1)*; Arg(Me) = CNC(=N)NCCC[C@H](N)C(=O)O; 4Pal = N[C@@H](Cc1ccncc1)C(=O)O; d4Pal = N[C@H](Cc1ccncc1)C(=O)O; Cha = N[C@@H](CC1CCCCC1)C(=O)O; azaGly = NNC(=O)O

Legend:
[1] = target: human OT7T175 (metastin receptor) (human) (UniProt Q969F8); assay: cell-based or functional assay
[2] = target: human OT7T175 (metastin receptor) (human) (UniProt Q969F8); assay: competition with Cy-5 metastin (40-54) on hOT7T175-CHO cells, FMAT
[3] = target: T1, human OT7T175 (metastin receptor) (human, UniProt Q969F8 1-398); assay: cell-based or functional assay
[4] = target: T1, human OT7T175 (metastin receptor); assay: cell-based or functional assay; remark: listed apart in the source
[5] = target: T1, human OT7T175 (metastin receptor); assay: cell-based or functional assay; remark: listed apart in the source
[6] = target: T1, human OT7T175 (metastin receptor); assay: competition with Cy-5 metastin (40-54) on hOT7T175-CHO cells, FMAT
[7] = target: T1, human OT7T175 (metastin receptor); assay: cell-based or functional assay; remark: listed apart in the source
[8] = target: T1, human OT7T175 (metastin receptor); assay: cell-based or functional assay; remark: listed apart in the source

T1 sequence (Q969F8 whole entry L364H): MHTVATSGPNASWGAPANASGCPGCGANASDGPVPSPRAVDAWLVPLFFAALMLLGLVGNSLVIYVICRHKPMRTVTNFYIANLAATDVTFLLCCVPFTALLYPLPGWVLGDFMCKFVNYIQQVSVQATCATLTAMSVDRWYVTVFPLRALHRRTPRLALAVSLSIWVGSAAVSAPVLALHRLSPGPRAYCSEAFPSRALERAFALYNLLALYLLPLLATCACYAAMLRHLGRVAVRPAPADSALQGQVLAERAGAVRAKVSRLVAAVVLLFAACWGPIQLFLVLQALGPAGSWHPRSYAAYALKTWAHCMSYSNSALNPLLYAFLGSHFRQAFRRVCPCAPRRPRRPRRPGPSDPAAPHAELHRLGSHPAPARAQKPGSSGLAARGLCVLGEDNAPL
human OT7T175 (metastin receptor) (human), sequence (Q969F8 whole entry L364H): as above

Row | Molecule | Ca ion level-increasing activity (FLIPR) [4] | Ca ion level-increasing activity (FLIPR, 40 s) [5] [EC50/MS10 EC50] | IC50 [6] [nM] | other results
1 | [D-Tyr1,D-Asn2,D-Trp3,AzaGly7,Arg(Me)9]MS10 (peptide) | – | – | – | Ca ion level-increasing activity (FLIPR) (x Metastin (1-54)) [1]: 1; IC50 [2]: 49 nM
2 | des(4-5)-MS10 (peptide) | – | – | – | Ca ion level-increasing activity (FLIPR) (x Metastin (1-54)) [3]: 1
3 | [D-Tyr1,D-Asn2,D-Trp3,Arg(Me)9]MS10 (peptide) | – | – | – | Ca ion level-increasing activity (FLIPR) (x Metastin (1-54)) [1]: 1
4 | des(4-5)-Boc-MS10 (peptide) | – | – | – | Ca ion level-increasing activity (FLIPR) (x Metastin (1-54)) [3]: 1
5 | YN[dW]NSFGLRF-NH2 [[D-Trp3]MS10] | 30 x Metastin (1-54) | 1.6 | – | –
6 | YNWNSFGLRW-NH2 (also called Compound No. 134) [[Trp10]MS10] | 30 x Metastin (1-54) | 0.5 | 110 | –
7 | YNWNSFGLRY-NH2 (also called Compound No. 109) [[Tyr10]MS10] | 20 x Metastin (1-54) | 2.6 | 23 | –
8 | [dY]NWNSFGLRF-NH2 [[D-Tyr1]MS10] | 30 x Metastin (1-54) | 1.6 | – | –
9 | [dY]N[4Pal]NSF[azaGly]L[Arg(Me)]F-NH2 (also called Compound No. 286) [[D-Tyr1,Pya(4)3,AzaGly7,Arg(Me)9]MS10] | – | – | 17 | Ca ion level-increasing activity (FLIPR) [7]: 2 x Metastin (1-54); cell growth inhibition activity, IC50 [8]: 18.3 nM
10 | [dY][dN][4Pal]NSF[azaGly]L[Arg(Me)]F-NH2 (also called Compound No. 303) [[D-Tyr1,D-Asn2,Pya(4)3,AzaGly7,Arg(Me)9]MS10] | – | 6.9 | 0.5 | Ca ion level-increasing activity (FLIPR) [7]: 5 x Metastin (1-54); cell growth inhibition activity, IC50 [8]: 41.2 nM
11 | [dY][d4Pal]NSF[azaGly]L[Arg(Me)]F-NH2 (N-terminus assumed; SMILES CNC(=N)NCCC[C@H](NC(=O)[C@H](CC(C)C)NC(=O)NNC(=O)[C@H](Cc1ccccc1)NC(=O)[C@H](CO)NC(=O)[C@H](CC(N)=O)NC(=O)[C@@H](Cc1ccncc1)NC(=O)[C@H](N)Cc1ccc(O)cc1)C(=O)N[C@@H](Cc1ccccc1)C(N)=O, also called Compound No. 305; KiSS1-305) [des(1)-[D-Tyr2,D-Pya(4)3,AzaGly7,Arg(Me)9]MS10] | – | 2 | 1.3 | Ca ion level-increasing activity (FLIPR) [7]: 5 x Metastin (1-54); cell growth inhibition activity, IC50 [8]: 8.94 nM
12 | {Propanoyl(3-(3-pyridyl))}-NSF[azaGly]L[Arg(Me)]F-NH2 (SMILES CNC(=N)NCCC[C@H](NC(=O)[C@H](CC(C)C)NC(=O)NNC(=O)[C@H](Cc1ccccc1)NC(=O)[C@H](CO)NC(=O)[C@H](CC(N)=O)NC(=O)CCc1cccnc1)C(=O)N[C@@H](Cc1ccccc1)C(N)=O, also called Compound No. 322) [des(1-3)-3-(3-Pyridyl)propionyl-[AzaGly7,Arg(Me)9]MS10] | – | 5.4 | 54 | Ca ion level-increasing activity (FLIPR) [7]: 1 x Metastin (1-54); cell growth inhibition activity, IC50 [8]: 71.9 nM
13 | YNWNSFGLXF (Har9; C-terminal amide, also called Compound No. 97) [[Har9]MS10] | 10 x Metastin (1-54) | 2.9 | 370 | –
14 | {Propanoyl(3-indol-3-yl)}-NSFGLRF-NH2 (SMILES CC(C)C[C@H](NC(=O)CNC(=O)[C@H](Cc1ccccc1)NC(=O)[C@H](CO)NC(=O)[C@H](CC(N)=O)NC(=O)CCc1c[nH]c2ccccc12)C(=O)N[C@@H](CCCNC(=N)N)C(=O)N[C@@H](Cc1ccccc1)C(N)=O, also called Compound No. 114) [des(1-3)-3-(3-Indolyl)propionyl-MS10] | 3 x Metastin (1-54) | 4.1 | 550 | –
15 | [dY]NWNSFGL[Arg(Me)]F-NH2 [[D-Tyr1,Arg(Me)9]MS10] | – | 1.6 | – | cell growth inhibition activity, IC50 [8]: 87 nM
16 | YNWNSXGLRF (Nal(2)6; C-terminal amide, also called Compound No. 152) [[Nal(2)6]MS10] | 5 x Metastin (1-54) | 1.4 | 180 | –
17 | YNWNSXGLRF (Cha6; C-terminal amide, also called Compound No. 156) [[Cha6]MS10] | 2 x Metastin (1-54) | 0.9 | 49 | –
18 | [dY]N[Cha]NSFGL[Arg(Me)]F-NH2 (N-terminus assumed; SMILES CNC(=N)NCCC[C@H](NC(=O)[C@H](CC(C)C)NC(=O)CNC(=O)[C@H](Cc1ccccc1)NC(=O)[C@H](CO)NC(=O)[C@H](CC(N)=O)NC(=O)[C@H](CC1CCCCC1)NC(=O)[C@H](CC(N)=O)NC(=O)[C@H](N)Cc1ccc(O)cc1)C(=O)N[C@@H](Cc1ccccc1)C(N)=O, also called Compound No. 171) [[D-Tyr1,Cha3,Arg(Me)9]MS10] | 10 x Metastin (1-54) | – | 110 | –
19 | LPNYNWNSFGLRF-NH2 (also called Compound No. 32) [Leu-Pro-Asn-MS10] | 10 x Metastin (1-54) | – | 25 | –
